# Reference: patent publication US20230365658A1
# “And” between values parts separate entries of the source, which are not always exact repeats. Equal entries are not always repeated. Where two headings read alike, the source gives them in different places.
# How the values were obtained:
# [1] = molecular target: SARS-CoV-2 spike (S) glycoprotein, Delta (B.1.617.2) (SARS-CoV-2) (UniProt P0DTC2); assay: cell-based or functional assay
# [2] = molecular target: SARS-CoV-2 spike (S) glycoprotein, Omicron BA.1.1 (SARS-CoV-2) (UniProt P0DTC2); assay: cell-based or functional assay
# [3] = molecular target: SARS-CoV-2 spike (S) glycoprotein, Omicron BA.5.5 (SARS-CoV-2) (UniProt P0DTC2); assay: cell-based or functional assay
# [4] = molecular target: SARS-CoV-2 spike (S) glycoprotein, Omicron BA.4 (SARS-CoV-2) (UniProt P0DTC2); assay: cell-based or functional assay
# [5] = molecular target: SARS-CoV-2 spike (S) glycoprotein, Omicron BA.1 (SARS-CoV-2) (UniProt P0DTC2); assay: cell-based or functional assay
# [6] = molecular target: COV2-RBD (rpk9) Wuhan-Hu-1 (WT) (SARS-CoV-2); assay: Gyros full-curve immunoassay, mAb titrated on RBD, relative binding (FI)
# [7] = molecular target: COV2-RBD (rpk9) B.1.1.529 (BA.1) (SARS-CoV-2); assay: as above
# [8] = molecular target: SARS-CoV-2 Spike-RBD, Delta (SARS-CoV-2) (UniProt P0DTC2); assay: as above
# [9] = molecular target: COV2-RBD (rpk9) Wuhan-Hu-1 (WT) (SARS-CoV-2)
# [10] = molecular target: COV2-RBD (rpk9) B.1.1.529 (BA.1) (SARS-CoV-2)
# [11] = molecular target: COV2-RBD (rpk9) Wuhan-Hu-1 (WT) (SARS-CoV-2); assay: Gyrolab immunoassay, IgG titrated on Spike-RBD, relative binding (FI)
# [12] = molecular target: COV2-RBD (rpk9) B.1.1.529 (BA.1) (SARS-CoV-2); assay: as above
# [13] = molecular target: SARS-CoV-2 spike (S) glycoprotein, Omicron BA.2 (SARS-CoV-2) (UniProt P0DTC2); assay: cell-based or functional assay
# [14] = molecular target: COV2-RBD (rpk9) B.1.1.529 (BA.1) (SARS-CoV-2); assay: Gyrolab immunoassay, reference titration, relative binding (%)
# [15] = molecular target: SARS-CoV-2 Spike-RBD, Delta (SARS-CoV-2) (UniProt P0DTC2); assay: as above
# [16] = molecular target: COV2-RBD (rpk9) Wuhan-Hu-1 (WT) (SARS-CoV-2); remark: listed apart in the source
# [17] = molecular target: COV2-RBD (rpk9) Wuhan-Hu-1 (WT) (SARS-CoV-2); assay: Gyrolab full-curve immunoassay (LLNL Gyros) on RBD
# [18] = molecular target: COV2-RBD (rpk9) B.1.1.529 (BA.1) (SARS-CoV-2); assay: Gyrolab full-curve immunoassay (LLNL Gyros) on RBD
substance,measurement,setting,value
rDENV-2D22 (antibody),authentic virus neutralization IC50 (FRNT),[1],> 10 µg/mL
same,authentic virus neutralization IC50 (FRNT),[2],> 10 µg/mL
same,normalized pseudoneutralization IC50,[2],> 10 µg/mL
same,authentic virus neutralization IC50 (FRNT),[3],> 10 µg/mL
same,authentic virus neutralization IC50 (FRNT),[4],> 10 µg/mL
same,normalized pseudoneutralization IC50,[4],> 10 µg/mL
same,authentic virus neutralization IC50 (FRNT),[5],> 10 µg/mL
S309 (antibody),EC50 (read off the curve),[6],2 µg/mL
same,EC50 (read off the curve),[7],4 µg/mL
same,EC50 (read off the curve),[8],2 µg/mL
same,EC50,[9],5.76 µg/mL
same,EC50,[10],17.2 µg/mL
same,EC50 (read off the curve),[11],2 µg/mL
same,EC50 (read off the curve),[12],4 µg/mL
same,pseudovirus neutralization IC50,[13],0.109 µg/mL
same,pseudovirus neutralization IC50,[2],0.0332 µg/mL
same,pseudovirus neutralization IC50,[5],0.0632 µg/mL
same,EC50 (read off the curve),[14],6 µg/mL
same,EC50 (read off the curve),[15],2 µg/mL
same,EC50 (read off the curve),[16],2 µg/mL
same,AUC(logC),[17],60.6
same,AUC(logC),[18],53.2
COV2-2130 (antibody),EC50,[9],1.72 µg/mL and 0.675 µg/mL
same,EC50,[10],2.77 µg/mL and 1.75 µg/mL
same,EC50 (read off the curve),[14],2 µg/mL
same,EC50 (read off the curve),[16],0.8 µg/mL
rS2K146 (antibody),normalized pseudoneutralization IC50,[13],0.00336 µg/mL
same,normalized pseudoneutralization IC50,[2],0.00209 µg/mL
same,normalized pseudoneutralization IC50,[4],0.036 µg/mL
same,normalized pseudoneutralization IC50,[5],0.00438 µg/mL
